Biological target: SARS-CoV-2 spike protein receptor-binding domain, wildtype (SARS-CoV-2) (UniProt P0DTC2)
Test: ITC

Substance: CC12.1 single-chain fragment variable (scFv)
- Kd: 28 nM
- dH: -4.8 kcal/mol

From paper PMC8445900
